In patent US20190358295A1:

B1: Recombinant Murine IL17 (IL-17A) (PeproTech) (ligand, UniProt Q62386 26-158, looked up)
chain: AAIIPQSSACPNTEAKDFLQNVKVNLKVFNSLGAKVSSRRPSDYLNRSTSPWTLHRNEDPDRYPSVIWEAQCRHQRCVNAEGKLDHHMNSVLIQQEILVLKREPESCPFTFRVEKMLVGVGCTCVASIVRQAA

Experiments:
[1] = biological target: Mst1r (macrophage stimulating 1 receptor/RON kinase) on mouse erythroid progenitor cells (mouse) (UniProt Q62190); assay: cell-based or functional assay
[2] = biological target: IL-17Ra on mouse bone marrow erythroid progenitor cells (mouse) (UniProt Q60943); assay: cell-based or functional assay
UniProt Q60943, sequence (Q60943 32-864): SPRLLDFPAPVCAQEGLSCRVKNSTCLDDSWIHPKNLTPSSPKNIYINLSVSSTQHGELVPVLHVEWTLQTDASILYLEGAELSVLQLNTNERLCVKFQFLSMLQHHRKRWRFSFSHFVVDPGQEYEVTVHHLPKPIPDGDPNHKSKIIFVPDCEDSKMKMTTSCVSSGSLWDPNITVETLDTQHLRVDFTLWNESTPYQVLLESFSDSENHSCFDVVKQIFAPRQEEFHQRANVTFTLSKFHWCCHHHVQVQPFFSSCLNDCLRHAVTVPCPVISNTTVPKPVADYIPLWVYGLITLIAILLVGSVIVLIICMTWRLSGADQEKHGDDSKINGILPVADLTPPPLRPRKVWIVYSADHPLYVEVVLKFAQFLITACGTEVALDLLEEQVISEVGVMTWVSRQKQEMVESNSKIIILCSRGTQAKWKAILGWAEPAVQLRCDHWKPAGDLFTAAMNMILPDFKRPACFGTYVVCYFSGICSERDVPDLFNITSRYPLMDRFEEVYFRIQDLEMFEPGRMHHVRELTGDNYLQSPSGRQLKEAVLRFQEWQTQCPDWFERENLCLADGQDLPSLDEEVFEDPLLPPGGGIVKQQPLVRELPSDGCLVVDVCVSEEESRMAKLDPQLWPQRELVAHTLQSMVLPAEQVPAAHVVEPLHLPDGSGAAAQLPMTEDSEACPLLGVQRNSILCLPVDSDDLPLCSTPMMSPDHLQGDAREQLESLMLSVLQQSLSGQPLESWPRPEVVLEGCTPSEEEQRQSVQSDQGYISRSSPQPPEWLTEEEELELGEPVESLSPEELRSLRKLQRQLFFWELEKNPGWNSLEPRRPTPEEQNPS

UniProt Q62190, sequence (Q62190 24-1378): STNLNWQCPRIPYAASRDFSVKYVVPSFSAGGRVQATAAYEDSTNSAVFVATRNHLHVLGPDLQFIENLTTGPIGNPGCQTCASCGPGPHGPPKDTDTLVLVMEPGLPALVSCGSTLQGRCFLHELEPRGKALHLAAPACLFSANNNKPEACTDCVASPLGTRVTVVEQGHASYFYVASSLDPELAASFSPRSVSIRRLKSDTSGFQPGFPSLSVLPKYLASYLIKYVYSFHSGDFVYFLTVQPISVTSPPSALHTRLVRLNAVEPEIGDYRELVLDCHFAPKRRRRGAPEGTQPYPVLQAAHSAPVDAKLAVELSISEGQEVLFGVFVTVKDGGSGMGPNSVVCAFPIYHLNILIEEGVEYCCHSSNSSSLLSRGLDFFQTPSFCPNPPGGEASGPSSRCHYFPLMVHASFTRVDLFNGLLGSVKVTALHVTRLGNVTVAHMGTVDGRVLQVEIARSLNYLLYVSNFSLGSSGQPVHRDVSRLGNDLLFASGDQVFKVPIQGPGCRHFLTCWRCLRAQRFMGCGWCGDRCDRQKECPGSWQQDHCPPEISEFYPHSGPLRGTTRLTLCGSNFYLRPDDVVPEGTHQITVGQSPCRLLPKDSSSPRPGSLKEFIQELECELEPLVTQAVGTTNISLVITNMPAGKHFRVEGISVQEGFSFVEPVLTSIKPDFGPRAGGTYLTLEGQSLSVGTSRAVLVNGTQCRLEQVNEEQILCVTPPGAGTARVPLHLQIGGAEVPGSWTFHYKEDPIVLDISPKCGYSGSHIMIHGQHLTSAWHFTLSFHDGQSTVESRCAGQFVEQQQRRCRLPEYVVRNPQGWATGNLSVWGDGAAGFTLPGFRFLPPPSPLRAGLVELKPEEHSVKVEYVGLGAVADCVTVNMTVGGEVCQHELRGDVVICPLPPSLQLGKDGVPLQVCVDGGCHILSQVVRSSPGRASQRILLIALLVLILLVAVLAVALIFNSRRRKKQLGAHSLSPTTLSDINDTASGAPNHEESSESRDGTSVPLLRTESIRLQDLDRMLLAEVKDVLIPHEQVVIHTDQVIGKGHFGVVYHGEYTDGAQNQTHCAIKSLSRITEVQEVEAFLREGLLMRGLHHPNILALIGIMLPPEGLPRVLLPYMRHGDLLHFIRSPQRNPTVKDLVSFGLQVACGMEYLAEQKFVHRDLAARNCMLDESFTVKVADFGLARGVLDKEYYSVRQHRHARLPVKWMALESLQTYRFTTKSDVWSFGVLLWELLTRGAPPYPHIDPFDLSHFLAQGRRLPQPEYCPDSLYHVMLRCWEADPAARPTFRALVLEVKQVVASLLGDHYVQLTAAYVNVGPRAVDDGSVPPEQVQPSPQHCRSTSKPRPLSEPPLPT

Row | Molecule | FL CFU-e colony formation at mildly elevated Epo (50 mU/ml) [1] [fold] | adult BM CFU-e colony formation at lower Epo (50 mU/ml) [2] [fold] | adult BM CFU-e colony formation at maximal levels of Epo [2] [%]
1 | MSP/MST1 (R&D systems; CAT #6244-MS-025) (from UniProt P26928 19-716) (ligand) | > 2 | – | –
2 | B1 | – | 4 | 50
